Laboratory results as given in patent US20220048967A1 (published 2022).
Square brackets hold non-standard residues; d marks the D form. Ends that are not written are not given here. αMePhe(2-F) = C[C@](N)(Cc1ccccc1F)C(=O)O; αMeF = C[C@](N)(Cc1ccccc1)C(=O)O; Aib = CC(C)(N)C(=O)O

T1: human gastric inhibitory peptide receptor (GIPR) (human, UniProt P48546 22-466)
T1 sequence (looked up): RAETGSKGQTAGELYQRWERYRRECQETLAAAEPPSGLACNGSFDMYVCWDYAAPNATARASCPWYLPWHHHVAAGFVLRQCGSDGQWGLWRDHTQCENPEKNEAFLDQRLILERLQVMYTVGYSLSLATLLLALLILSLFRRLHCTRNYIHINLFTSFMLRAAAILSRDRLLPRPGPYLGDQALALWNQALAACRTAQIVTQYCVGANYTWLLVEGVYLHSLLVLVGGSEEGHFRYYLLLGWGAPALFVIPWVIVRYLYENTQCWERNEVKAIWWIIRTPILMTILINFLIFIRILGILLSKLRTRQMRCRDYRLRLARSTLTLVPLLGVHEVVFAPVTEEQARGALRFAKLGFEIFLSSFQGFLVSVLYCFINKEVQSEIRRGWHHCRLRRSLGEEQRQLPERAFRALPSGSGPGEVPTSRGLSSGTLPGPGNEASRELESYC

B1: Example 152 (peptide)
peptide: Y[Aib]EGT[αMePhe(2-F)]TSDYSIXLDEKAQ[Aib]EFI[Aib]YLIEGGPSSGAPPPS-NH2
modifications: not fully specified (residues 13, 17); printed as Y-Aib-EGT-αMeF(2F)-TSDYSI-αMeF-LDEK((2-[2-(2-Amino-ethoxy)-ethoxy]-acetyl)2-(γ-Glu)-CO-(CH2)18-CO2H)AQ-Aib-EFI-Aib-YLIEGGPSSGAPPPS-NH2
B2: Example 154 (peptide)
peptide: Y[Aib]EGT[αMePhe(2-F)]TSDHSIXLDEKAQ[Aib]EFIEYLIEGGPSSGAPPPS-NH2
modifications: not fully specified (residues 13, 17); printed as Y-Aib-EGT-αMeF(2F)-TSDHSI-αMeF-LDEK((2-[2-(2-Amino-ethoxy)-ethoxy]-acetyl)2-(γ-Glu)-CO-(CH2)18-CO2H)AQ-Aib-EFIEYLIEGGPSSGAPPPS-NH2
B3: Example 160 (peptide)
peptide: YXEGTXTSDXSIXLDEKAQXTFIXYLIEGGPSSGAPPPS
modifications: Y-Aib-EGT-αMeF(2F)-TSD-Aib-SI-αMeF-LDEK((2-[2-(2-Amino-ethoxy)-ethoxy]-acetyl)2-(γ-Glu)-CO-(CH2)18-CO2H)AQ-Aib-TFI-(D-Glu)-YLIEGGPSSGAPPPS-NH2
B4: Example 159 (peptide)
peptide: Y[Aib]EGT[αMePhe(2-F)]TSD[αMeF]SIXLDEKAQ[Aib]EFIEYLIEGGPSSGAPPPS-NH2
modifications: not fully specified (residues 13, 17); printed as Y-Aib-EGT-αMeF(2F)-TSD-αMeF-SI-αMeF-LDEK((2-[2-(2-Amino-ethoxy)-ethoxy]-acetyl)2-(γ-Glu)-CO-(CH2)18-CO2H)AQ-Aib-EFIEYLIEGGPSSGAPPPS-NH2
B5: Example 145 (peptide)
peptide: Y[Aib]EGT[αMeF]TSDASIXLDKKAQ[Aib]AFIEYLIEGGPSSGAPPPS-NH2
modifications: not fully specified (residues 13, 17); printed as Y-Aib-EGT-αMeF-TSDASI-αMeF-LDKK((2-[2-(2-Amino-ethoxy)-ethoxy]-acetyl)2-(γ-Glu)-CO-(CH2)18-CO2H)AQ-Aib-AFIEYLIEGGPSSGAPPPS-NH2
B6: Example 146 (peptide)
peptide: Y[Aib]EGT[αMePhe(2-F)]TSDYSIXLDEKAQ[Aib]EFIQYLIEGGPSSGAPPPS-NH2
modifications: not fully specified (residues 13, 17); printed as Y-Aib-EGT-αMeF(2F)-TSDYSI-αMeF-LDEK((2-[2-(2-Amino-ethoxy)-ethoxy]-acetyl)2-(γ-Glu)-CO-(CH2)18-CO2H)AQ-Aib-EFIQYLIEGGPSSGAPPPS-NH2
B7: Example 148 (peptide)
peptide: Y[Aib]EGT[αMePhe(2-F)]TSDYSIXLDEKAQ[Aib]EFIAYLIEGGPSSGAPPPS-NH2
modifications: not fully specified (residues 13, 17); printed as Y-Aib-EGT-αMeF(2F)-TSDYSI-αMeF-LDEK((2-[2-(2-Amino-ethoxy)-ethoxy]-acetyl)2-(γ-Glu)-CO-(CH2)18-CO2H)AQ-Aib-EFIAYLIEGGPSSGAPPPS-NH2
B8: Example 150 (peptide)
peptide: Y[Aib]EGT[αMePhe(2-F)]TSDYSIXLDEKAQ[Aib]EFISYLIEGGPSSGAPPPS-NH2
modifications: not fully specified (residues 13, 17); printed as Y-Aib-EGT-αMeF(2F)-TSDYSI-αMeF-LDEK((2-[2-(2-Amino-ethoxy)-ethoxy]-acetyl)2-(γ-Glu)-CO-(CH2)18-CO2H)AQ-Aib-EFISYLIEGGPSSGAPPPS-NH2
B9: Example 149 (peptide)
peptide: Y[Aib]EGT[αMePhe(2-F)]TSDYSIXLDEKAQ[Aib]EFIVYLIEGGPSSGAPPPS-NH2
modifications: not fully specified (residues 13, 17); printed as Y-Aib-EGT-αMeF(2F)-TSDYSI-αMeF-LDEK((2-[2-(2-Amino-ethoxy)-ethoxy]-acetyl)2-(γ-Glu)-CO-(CH2)18-CO2H)AQ-Aib-EFIVYLIEGGPSSGAPPPS-NH2
B10: Example 144 (peptide)
peptide: Y[Aib]EGT[αMeF]TSDYSIXLDKKAQH[Aib]FIEYLIEGGPSSGAPPPS-NH2
modifications: not fully specified (residues 13, 17); printed as Y-Aib-EGT-αMeF-TSDYSI-αMeF-LDKK((2-[2-(2-Amino-ethoxy)-ethoxy]-acetyl)2-(γ-Glu)-CO-(CH2)18-CO2H)AQH-Aib-FIEYLIEGGPSSGAPPPS-NH2
B11: Example 151 (peptide)
peptide: Y[Aib]EGT[αMePhe(2-F)]TSDYSIXLDEKAQ[Aib]EFIPYLIEGGPSSGAPPPS-NH2
modifications: not fully specified (residues 13, 17); printed as Y-Aib-EGT-αMeF(2F)-TSDYSI-αMeF-LDEK((2-[2-(2-Amino-ethoxy)-ethoxy]-acetyl)2-(γ-Glu)-CO-(CH2)18-CO2H)AQ-Aib-EFIPYLIEGGPSSGAPPPS-NH2
B12: Example 153 (peptide)
peptide: Y[Aib]EGT[αMePhe(2-F)]TSDYSIXLDEKAQ[Aib]EFIHYLIEGGPSSGAPPPS-NH2
modifications: not fully specified (residues 13, 17); printed as Y-Aib-EGT-αMeF(2F)-TSDYSI-αMeF-LDEK((2-[2-(2-Amino-ethoxy)-ethoxy]-acetyl)2-(γ-Glu)-CO-(CH2)18-CO2H)AQ-Aib-EFIHYLIEGGPSSGAPPPS-NH2

biological target: T1, human gastric inhibitory peptide …; test: cell-based or functional assay

| Binder | hGIPR cAMP EC50 ratio | hGIPR cAMP Rel EC50 |
| --- | --- | --- |
| B1 | 2.57 | 0.0504 nM |
| B2 | 5.9 | 0.0266 nM |
| B3 | 0.00712 | 21 nM |
| B4 | 0.039 | 4.6 nM |
| B5 | 2.46 | 0.0514 nM |
| B6 | 1.98 | 0.0583 nM |
| B7 | 2.7 | 0.043 nM |
| B8 | 2.64 | 0.0511 nM |
| B9 | 1.82 | 0.0711 nM |
| B10 | 3.6 | 0.0375 nM |
| B11 | 0.262 | 0.41 nM |
| B12 | 1.7 | 0.0634 nM |

biological target: human GLP-1 receptor (GLP-1R) (human, UniProt P43220 24-463); test: cell-based or functional assay

| Binder | hGLP1R cAMP EC50 ratio | hGLP1R cAMP Rel EC50 |
| --- | --- | --- |
| B1 | 0.484 | 0.0915 nM |
| B2 | 1.23 | 0.0393 nM |
| B3 | 1.24 | 0.0461 nM |
| B4 | 0.176 | 0.33 nM |
| B5 | 1.22 | 0.0427 nM |
| B6 | 0.951 | 0.0604 nM |
| B7 | 0.859 | 0.0626 nM |
| B8 | 0.79 | 0.0575 nM |
| B9 | 0.484 | 0.0916 nM |
| B10 | 0.851 | 0.0608 nM |
| B11 | 0.0278 | 1.6 nM |
| B12 | 0.501 | 0.0904 nM |
